Substitutions are numbered along the chain they refer to. In names and notes the source's numbering stands.
T1: hIFNγRβ.SG.hFc (human, UniProt P38484 28-246)
T1 construct: also called pCTR 2828; not shown: hinge, CH2 and CH3 regions of human IgG1 (hFc)
T1 sequence: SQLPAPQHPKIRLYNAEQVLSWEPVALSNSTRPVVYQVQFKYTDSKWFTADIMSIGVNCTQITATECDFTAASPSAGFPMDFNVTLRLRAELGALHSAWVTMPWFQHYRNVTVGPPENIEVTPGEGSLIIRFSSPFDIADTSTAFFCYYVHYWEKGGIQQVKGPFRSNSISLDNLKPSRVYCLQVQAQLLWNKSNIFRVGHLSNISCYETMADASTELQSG

B1: human interferon γ (ligand, UniProt P01579 24-166, looked up)
chain: QDPYVKEAENLKKYFNAGHSDVADNGTLFLGILKNWKEESDRKIMQSQIVSFYFKLFKNFKDDQSIQKSVETIKEDMNVKFFNSNKKKRDDFEKLTNYSVTDLNVQRKAIHELIQVMAELSPAAKTGKRKRSQMLFRGRRASQ
notes: Injected in solution over captured fusion proteins (BiaCore); Recombinant human IFNγ at 4 pM in the luciferase bioassays; also called IFNγ; human IFNγ
B2: hIFNγRβ.TG.hIFNγRα(1-239).SG.hFc (Fc fusion)
chain: SQLPAPQHPKIRLYNAEQVLSWEPVALSNSTRPVVYQVQFKYTDSKWFTADIMSIGVNCTQITATECDFTAASPSAGFPMDFNVTLRLRAELGALHSAWVTMPWFQHYRNVTVGPPENIEVTPGEGSLIIRFSSPFDIADTSTAFFCYYVHYWEKGGIQQVKGPFRSNSISLDNLKPSRVYCLQVQAQLLWNKSNIFRVGHLSNISCYETMADASTELQTGMALLFLLPLVMQGVSRAEMGTADLGPSSVPTPTNVTIESYNMNPIVYWEYQIMPQVPVFTVEVKNYGVKNSEWIDACINISHHYCNISDHVGDPSNSLWVRVKARVGQKESAYAKSEEFAVCRDGKIGPPKLDIRKEEKQIMIDIFHPSVFVNGDEQEVDYDPETTCYIRVYNVYVRMNGSEIQYKILTQKEDDCDEIQCQLAIPVSSLNSQYCVSAEGVLHVWGVTTEKSKEVCITIFSG
notes: PCTR number 2843 is printed for two different constructs (r17 and r19); also called pCTR 2843; R2-R1-Fc; not shown: hinge, CH2 and CH3 regions of human IgG1 (hFc)
B3: hIFNγRβ(C174S).SG.hFc (Fc fusion)
chain: T1 sequence with C147S
notes: also called pCTR 2848; not shown: hinge, CH2 and CH3 regions of human IgG1 (hFc)
B4: hIFNγRα(1-239).SG.hFc (Fc fusion, not shown: a dimerising Fc or GST)
chain: EMGTADLGPSSVPTPTNVTIESYNMNPIVYWEYQIMPQVPVFTVEVKNYGVKNSEWIDACINISHHYCNISDHVGDPSNSLWVRVKARVGQKESAYAKSEEFAVCRDGKIGPPKLDIRKEEKQIMIDIFHPSVFVNGDEQEVDYDPETTCYIRVYNVYVRMNGSEIQYKILTQKEDDCDEIQCQLAIPVSSLNSQYCVSAEGVLHVWGVTTEKSKEVCITIFSG
B5: hIFNγRα(1-239).TG.hFc.ARA.hIFNγRβ (Fc fusion, not shown: a dimerising Fc or GST)
chain (part 1 of 2): B4 chain with S223T
chain (part 2 of 2): ARASQLPAPQHPKIRLYNAEQVLSWEPVALSNSTRPVVYQVQFKYTDSKWFTADIMSIGVNCTQITATECDFTAASPSAGFPMDFNVTLRLRAELGALHSAWVTMPWFQHYRNVTVGPPENIEVTPGEGSLIIRFSSPFDIADTSTAFFCYYVHYWEKGGIQQVKGPFRSNSISLDNLKPSRVYCLQVQAQLLWNKSNIFRVGHLSNISCYETMADASTELQ

Columns and labels:
[1] = molecular target: B5; experiment: BiaCore (SPR), fusion captured by anti-human Fc, human IFNγ injected; R1-Fc-R2 configuration
Protocol: (§1) The affinity of the interferon γ-binding fusion polypeptides for human interferon γ was measured using a BlAcore 2000™ or BlAcore 3000™, as described in WO 00/75319, herein specifically incorporated by reference in its entirety. Briefly, the IFNγ-specific polypeptides were produce as small-scale supernatants by transiently transfecting CHO cells, using Lipofectamine/LIPO Plus® (Life Technologies), with DNA constructs encoding the proteins. Supernatants were collected after 72 hours and protein expression was measured by Western blotting with anti-human Fc HRP-conjugated antibody (Promega) and visualized by ECL (Pierce). Briefly, 5.4×10⁵ CHOK1 cells per well of a 6 well tissue culture dish were transfected using 1 μg of DNA and 5 μl of lipofectamine in OptiMEM™ (Gibco). After 12 h the cells were washed with OptiMEM™ and 2 ml of CHO serum free medium (Gibco) was added. After 60 h and 72 h the media was collected and centrifuged to remove cellular debris. For the BiaCore™ analysis, the IFNγ-binding fusion polypeptides from the transiently transfected CHO supernatants were captured onto the chip surface using anti-human Fc antibodies. Various concentrations of human IFNγ are injected over the surface and the time course of association and dissociation are monitored. Kinetic analyses using BIA evaluation software were performed to obtain the association and dissociation rate constants.

hIFNγRβ.SG.hFc = molecular target: T1, hIFNγRβ.SG.hFc; experiment: BiaCore, fusion captured by anti-human Fc, human IFNγ injected
Protocol: as §1

hIFNγRα(1-239).SG.hFc = molecular target: B4; experiment: BiaCore (SPR), fusion from CHO supernatant captured by anti-human Fc, human IFNγ injected
Protocol: as §1

human interferon γ [2] = molecular target: B1; experiment: BiaCore (SPR), fusion captured by anti-human Fc, human IFNγ injected; R2-R1-Fc configuration
Protocol: as §1

human interferon γ [3] = molecular target: B1; experiment: cell-based or functional assay
human interferon γ [4] = molecular target: B1; experiment: BiaCore, fusion captured by anti-human Fc, human IFNγ injected
Protocol: as §1

| IC50 (M), GAS-luciferase bioassay in HEK293 cells (human interferon γ [3]) | IC50 (M), ISRE-luciferase bioassay in HEK293 cells (human interferon γ [3]) | Binder | further results |
| --- | --- | --- | --- |
| – | – | B1 | Kd [1]: > 10 nM; binding result (hIFNγRβ.SG.hFc): no binding; Kd (hIFNγRα(1-239).SG.hFc): 6 nM |
| 9.8e-09 M | 1.46e-08 M | B2 | Kd (human interferon γ [2]): > 10 nM |
| – | – | B3 | binding result (human interferon γ [4]): no binding |
| 7.9e-09 M | 6.2e-09 M | B4 | – |
| 1.6e-08 M | 8e-07 M | B5 | – |

— patent US20070020283A1 (Regeneron, published 2007)
